From paper PMC6795507 (Science Advances, 2019)
Several values for one entry are separate records, joined by “and”; a condition that tells them apart may be missing. Equal values may be shown once.

Key:
[1] = biological target: head fiber gp14 of phage P68 (Staphylococcus aureus phage P68); assay: cryo-EM structure
[2] = biological target: portal protein gp19 of phage P68 (Staphylococcus aureus phage P68); assay: cryo-EM structure
[3] = biological target: lower collar protein gp18 of phage P68 (Staphylococcus aureus phage P68); assay: cryo-EM structure
[4] = biological target: major capsid protein gp20 of phage P68 (Staphylococcus aureus phage P68); assay: cryo-EM structure
[5] = biological target: tail fiber gp17 of phage P68 (in the virion) (Staphylococcus aureus phage P68); assay: cryo-EM structure
crystal structure = biological target: the molecule itself; assay: crystal structure

head fiber gp14 of phage P68 (natural protein)
stoichiometry N [1]: 3

inner core protein gp22 of phage P68 (natural protein)
stoichiometry N [2]: 6

lower collar protein gp18 of phage P68 (natural protein)
stoichiometry N [3]: 12

major capsid protein gp20 of phage P68 (natural protein)
stoichiometry N [4]: 5 and 6

portal protein gp19 of phage P68 (natural protein)
stoichiometry N [2]: 12

tail fiber gp17 of phage P68 (in the virion) (natural protein)
stoichiometry N [5]: 3

B1: His-tagged tail fiber protein of phage P68 (recombinant) (natural protein)
chain: MAYNENDFKYFDDIRPFLDEIYKTRERYTPFYDDRADYNTNSKSYYDYISRLSKLIEVLARRIWDYDNELKKRFKNWDDLMKAFPEQAKDLFRGWLNDGTIDSIIHDEFKKYSAGLTSAFALFKVTEMKQMNDFKSEVKDLIKDIDRFVNGFELNELEPKFVMGFGGIRNAVNQSINIDKETNHMYSTQSDSQKPEGFWINKLTPSGDLISSMRIVQGGHGTTIGLERQSNGEMKIWLHHDGVAKLLQVAYKDNYVLDLEEAKGLTDYTPQSLLNKHTFTPLIDEANDKLILRFGDGTIQVRSRADVKNHIDNVEKEMTIDNSENNDNRWMQGIAVDGDDLYWLSGNSSVNSHVQIGKYSLTTGQKIYDYPFKLSYQDGINFPRDNFKEPEGICIYTNPKTKRKSLLLAMTNGGGGKRFHNLYGFFQLGEYEHFEALRARGSQNYKLTKDDGRALSIPDHIDDLNDLTQAGFYYIDGGTAEKLKNMPMNGSKRIIDAGCFINVYPTTQTLGTVQELTRFSTGRKMVKMVRGMTLDVFTLKWDYGLWTTIKTDAPYQEYLEASQYNNWIAYVTTAGEYYITGNQMELFRDAPEEIKKVGAWLRVSSGNAVGEVRQTLEANISEYKEFFSNVNAETKHREYGWVAKHQK
stoichiometry N (crystal structure): 3
